The supplement of paper PMC9732359
± gives the uncertainty stated by the source.

Experiment: protein stability index of a GFP-peptide fusion (yeast GPS) (PSI 1-4); higher = more stable; sorted into four equal gates, so the index is relative within each strain
Conditions: pdr5∆
Outline: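 Each library plasmid carries Cherry plus GFP with a tiled 17-residue yeast protein peptide fused downstream, and the pooled library was carried in yeast. Mid-log cultures in leucine-free medium were sorted into four equal gates by GFP/Cherry ratio. Reads from Illumina sequencing of PCR-amplified plasmids from each gate were assigned to strains by barcodes. Per peptide, the protein stability index was computed as the summed products of gate read frequency and gate number.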

Row | Sequence | protein stability index
1 | IKVTVQLKIQNRQAAAS [RPL12A] | 2 ± 0.052

Same assay, conditions: san1∆

Row | Sequence | protein stability index
2 | HKVTQKKDIKIGTNDLF [SIR4] | 2.7 ± 0.072
3 | HLAICLDIINPGSVEEV [YDL116W/NUP84] | 2.46 ± 0.13
4 | HLDSFNYFVDTDLKKII [RET1] | 2.67 ± 0.1
5 | HLIKCFFKITLQRASSK [ITC1] | 1.18 ± 0.12
6 | HMISQEGIKETQAKRIF [SWI1] | 3.19 ± 0.11
7 | HMSTYLKIYKVGDIVDI [RPL21B] | 1.95 ± 0.052
8 | HNGRDKIQFHIHFADVA [RGR1] | 1.43 ± 0.079
9 | HNVFSKEQTIQLPSKFT [RPN14] | 2.43 ± 0.12
10 | HPFGHALVAGIERYPLK [RPL27A] | 2.49 ± 0.082
11 | HPFVFEEVEDQINPTRE [SNF2] | 2.94 ± 0.17
12 | HPKIVKKHTKKFKRHHS [RPL32] | 2.66 ± 0.045
13 | HPSIYTQVFNILLQHKE [POP1] | 2.41 ± 0.08
14 | HQQQLQQPHYIQRTRER [DSN1] | 2.92 ± 0.037
15 | HRDKNKMDMICRNINRK [DIS3] | 2.41 ± 0.083
16 | HRIGQKKQVHVYRFVTE [ISW2] | 2.28 ± 0.075
17 | HRLIATHTNLERDEQKR [SNF2] | 3.01 ± 0.11
18 | HRLSILSHYAKIRPWRT [RPO31] | 2.85 ± 0.087
19 | HSFEDAHTPMLQMYSKI [FAS1] | 2.82 ± 0.096
20 | HSKFRSSSGNTWSLILN [YML031W/NDC1] | 3.15 ± 0.078
21 | HSLAYLLENFANFKTSK [RRP6] | 2.81 ± 0.19
22 | HSNRCIVFSKKEPFPHS [CSN12] | 2.8 ± 0.058
23 | HTGKKLMAQIFFGPTYY [RPB2] | 1.97 ± 0.057
24 | HTTQIVNLEDNTQDLLL [YML103C/NUP188] | 3.27 ± 0.069
25 | HVEKERASTELSQSRIK [YIL149C/MLP2] | 3.12 ± 0.095
26 | HVESDKITAKTQHEEEE [IRR1] | 3.09 ± 0.092
27 | HVVTREKGPQVCAKLFG [RPO21] | 2.95 ± 0.097

Row | Sequence | protein stability index
28 | HYERTQTKENKRCVGVI [RPN8] | 2.49 ± 0.093
29 | HYVSTSKISQMAQNKTH [YLR018C/POM34] | 1.78 ± 0.058
30 | HYVVLDTNVVLQAIDLL [DIS3] | 2.23 ± 0.1
31 | IADELMKLDDSSKTRNV [ITC1] | 2.69 ± 0.072
32 | IADKTTYDKETITDLIE [SIR4] | 3.42 ± 0.051
33 | IAEVGNKRWKVDIGGKQ [RRP4] | 3.22 ± 0.11
34 | IAKPNTANAKHTSSNSR [SMB1] | 2.72 ± 0.089
35 | IAPRPLDLLRPVVRAPT [RPL13A] | 2.1 ± 0.12
36 | IASTEKPENKTDKVSLS [SIR4] | 3.17 ± 0.067
37 | IAVLRSKEWFQLDDEDF [FAS1] | 1.81 ± 0.058
38 | ICLYSSFQKNSLHNTEK [AAR2] | 2.57 ± 0.064
39 | IDADSLEDIYTSAHEAI [RPL5] | 2.9 ± 0.1
40 | IDAMKAVAEAYNNRSLL [RPN6] | 2.28 ± 0.095
41 | IDDANVTRKQEDARRNP [RPC37] | 2.06 ± 0.13
42 | IDEHIDLGIKYDPSIGI [RPL11A] | 2.91 ± 0.03
43 | IDEIDAIGTKRYDSNSG [RPT2] | 2.36 ± 0.087
44 | IDGKTVSYKDYSIFLEN [SMC1] | 2.85 ± 0.061
45 | IDGKVIQAGKFDNKSTS [SNF2] | 1.9 ± 0.21
46 | IDIINKLILHAIHIFES [YML103C/NUP188] | 1.42 ± 0.065
47 | IDKLMLSPSDQFAPAFL [SSN2] | 2.1 ± 0.13
48 | IDMGEDKENVPVEKVKE [DPB4] | 3.29 ± 0.21
49 | IDPSVTMMTVEEKPDVT [RPT1] | 1.93 ± 0.13
50 | IDQDIHGIVFQHPFPLA [SSN2] | 2.24 ± 0.059
51 | IDQVMMSVSDNDQALIK [RET1] | 3.13 ± 0.048
52 | IDRNLKCQTCQEGMNEC [RPO21] | 2.56 ± 0.079
53 | IDRNSTILYLNVFHGLC [IRR1] | 2.14 ± 0.25

Row | Sequence | protein stability index
54 | IDRPKHELSRAELEELE [SMD2] | 3.32 ± 0.07
55 | IDTSKNLENMSIQDTST [YCG1] | 2.71 ± 0.044
56 | IEDLRADINSNRLSNPQ [YOR098C/NUP1] | 2.72 ± 0.06
57 | IEEAKSIRRQDYINELS [REC8] | 3.39 ± 0.16
58 | IEEEIFDDSSRIVNHKT [LIN1] | 3.11 ± 0.072
59 | IEFEYDPWNKLKHTDYW [RPB3] | 2.81 ± 0.089
60 | IEILVKDNECSSFEENN [RRI2] | 2.89 ± 0.12
61 | IELSDGSTFKVNQEFIF [YJL039C/NUP192] | 2.78 ± 0.061
62 | IEMKDVSSKPSKPESSV [MED1] | 2.89 ± 0.076
63 | IEMYVQEASKQYTKDEQ [RPN2] | 3.06 ± 0.057
64 | IENMTKEKVSNGGVGVD [FAS2] | 3.33 ± 0.087
65 | IEPVTKVSSLKMFIQRI [YCS4] | 3.17 ± 0.048
66 | IEQFAMRRNSKILNIIK [POP5] | 2.86 ± 0.076
67 | IETIGHLITKEEIMHGL [RPN5] | 3.13 ± 0.079
68 | IEYCSAQPSVQSSFAGT [FAS2] | 2.77 ± 0.073
69 | IFINYKQTADWLAEKFQ [PRP28] | 2.37 ± 0.072
70 | IFNGETLEDALRRIITD [GRR1] | 2.07 ± 0.07
71 | IFSQMSRLLDILEDYCY [ISW2] | 2.03 ± 0.11
72 | IFSQTTNSTYNPASATD [YJL039C/NUP192] | 2.46 ± 0.054
73 | IFTEKIYKSIFNVVDVG [YJL039C/NUP192] | 1.72 ± 0.14
74 | IGAAELNENARELEQIK [SNF12] | 2.84 ± 0.12
75 | IGHLITKEEIMHGLQAK [RPN5] | 2.94 ± 0.065
76 | IGNLITRQFEGRSNEIV [PRP8] | 3 ± 0.058
77 | IGTANYKPLIEERMGQI [SMC4] | 3.37 ± 0.059
78 | IHGELKTYKEGINKNEE [SMC1] | 2.87 ± 0.055
79 | IHKIQNDNNLKKLESQE [RPN5] | 2.85 ± 0.11

Row | Sequence | protein stability index
80 | IHSLVKQRLDLARQVKL [YIL149C/MLP2] | 3.03 ± 0.064
81 | IIAELSFLKVDPDLGLD [YJL039C/NUP192] | 3.23 ± 0.1
82 | IIASASYDKTVKLWEED [YGL100W/SEH1] | 3.22 ± 0.093
83 | IIDEIITQMRVNDEEEH [RPC82] | 3.54 ± 0.12
84 | IIFASTKLGFTFTIKEF [SNU114] | 1.83 ± 0.074
85 | IIKLVEGLANDPENKVP [RPS12] | 2.25 ± 0.092
86 | IILGTNLYDGAEHKYMP [BRR2] | 3.6 ± 0.087
87 | IIMFVGLQGSGKTTSCT [SRP54] | 3.13 ± 0.064
88 | IINSTALMKEKDIRSTL [RPC82] | 2.97 ± 0.093
89 | IIPQDILDCVVTNSMRQ [YJR042W/NUP85] | 3.35 ± 0.044
90 | IITSGRDTREVLEERER [ARP9] | 3.52 ± 0.065
91 | IIVPDLIELKSDLLVAP [YML103C/NUP188] | 1.95 ± 0.094
92 | IKDSVREVGTKFTTVLA [ECM29] | 2.22 ± 0.078
93 | IKEENDMENMADEQKRS [ARP7] | 3.24 ± 0.095
94 | IKEKVQFNATINPESRE [ITC1] | 1.97 ± 0.073
95 | IKELLNITKNLKTFNGS [POP4] | 2.46 ± 0.056
96 | IKGQCLATLLGHNDWVS [ASC1] | 1.72 ± 0.11
97 | IKHKHKKVKLAVLSYYK [RPS31] | 2.37 ± 0.073
98 | IKIEPSADDDVNNGNIP [SIR3] | 2.58 ± 0.15
99 | IKKVICGAWEPAITIEK [SIR3] | 2.47 ± 0.1
100 | IKLDIVVGQNQLIDQFE [SNF5] | 2.11 ± 0.092
101 | IKPKIALQDKEITSVLS [SNF12] | 2.36 ± 0.16
102 | IKRTDEGGEAEFIFGTY [ARP7] | 3.37 ± 0.056
103 | IKVTVQLKIQNRQAAAS [RPL12A] | 1.75 ± 0.1
